Columns and labels:
Assay in all cases: SEC-MALS
[1] = biological target: PR-A (progesterone receptor isoform A);SRC3 (steroid receptor coactivator 3) (human?;human?, UniProt P06401;Q9Y6Q9 165-933;1-1424, |)
[2] = biological target: PR-B (progesterone receptor isoform B);SRC3 (steroid receptor coactivator 3);p300 (human?;human?;human?, UniProt P06401;Q9Y6Q9;Q09472 1-933;1-1424;1-2414, ||)
[3] = biological target: PR-A (progesterone receptor isoform A);SRC3 (steroid receptor coactivator 3);p300 (human?;human?;human?, UniProt P06401;Q9Y6Q9;Q09472 165-933;1-1424;1-2414, ||)
[4] = biological target: PR-B (progesterone receptor isoform B);SRC3 (steroid receptor coactivator 3) (human?;human?, UniProt P06401;Q9Y6Q9 1-933;1-1424, |)
Sequence of PR-B (progesterone receptor isoform B);SRC3 (steroid receptor coactivator 3) (P06401 whole entry, chain 1 of 2, canonical isoform): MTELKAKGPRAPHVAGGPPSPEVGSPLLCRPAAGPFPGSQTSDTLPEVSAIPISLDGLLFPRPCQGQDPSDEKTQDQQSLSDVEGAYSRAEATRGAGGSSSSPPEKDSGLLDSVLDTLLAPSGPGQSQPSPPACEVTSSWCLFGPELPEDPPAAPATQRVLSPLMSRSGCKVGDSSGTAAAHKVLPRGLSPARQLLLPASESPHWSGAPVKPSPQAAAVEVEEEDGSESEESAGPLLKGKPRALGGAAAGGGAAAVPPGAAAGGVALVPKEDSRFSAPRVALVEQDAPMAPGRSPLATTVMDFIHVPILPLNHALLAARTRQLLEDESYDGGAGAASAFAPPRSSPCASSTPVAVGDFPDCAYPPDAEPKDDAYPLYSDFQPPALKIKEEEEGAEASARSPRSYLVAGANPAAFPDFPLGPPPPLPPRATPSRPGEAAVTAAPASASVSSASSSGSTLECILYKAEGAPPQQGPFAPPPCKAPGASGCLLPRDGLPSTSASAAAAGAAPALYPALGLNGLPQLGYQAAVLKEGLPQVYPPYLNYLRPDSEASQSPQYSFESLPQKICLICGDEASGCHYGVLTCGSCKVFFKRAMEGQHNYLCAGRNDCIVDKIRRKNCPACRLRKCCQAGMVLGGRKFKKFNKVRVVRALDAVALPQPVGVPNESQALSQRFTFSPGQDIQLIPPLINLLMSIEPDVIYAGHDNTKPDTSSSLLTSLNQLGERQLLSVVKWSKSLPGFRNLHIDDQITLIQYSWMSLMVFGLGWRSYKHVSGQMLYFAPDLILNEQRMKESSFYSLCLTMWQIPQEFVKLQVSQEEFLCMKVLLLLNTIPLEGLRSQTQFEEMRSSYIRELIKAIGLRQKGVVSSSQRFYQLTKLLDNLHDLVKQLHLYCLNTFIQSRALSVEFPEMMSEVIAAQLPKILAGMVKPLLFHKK
Sequence of PR-B (progesterone receptor isoform B);SRC3 (steroid receptor coactivator 3) (Q9Y6Q9 whole entry, chain 2 of 2, canonical isoform): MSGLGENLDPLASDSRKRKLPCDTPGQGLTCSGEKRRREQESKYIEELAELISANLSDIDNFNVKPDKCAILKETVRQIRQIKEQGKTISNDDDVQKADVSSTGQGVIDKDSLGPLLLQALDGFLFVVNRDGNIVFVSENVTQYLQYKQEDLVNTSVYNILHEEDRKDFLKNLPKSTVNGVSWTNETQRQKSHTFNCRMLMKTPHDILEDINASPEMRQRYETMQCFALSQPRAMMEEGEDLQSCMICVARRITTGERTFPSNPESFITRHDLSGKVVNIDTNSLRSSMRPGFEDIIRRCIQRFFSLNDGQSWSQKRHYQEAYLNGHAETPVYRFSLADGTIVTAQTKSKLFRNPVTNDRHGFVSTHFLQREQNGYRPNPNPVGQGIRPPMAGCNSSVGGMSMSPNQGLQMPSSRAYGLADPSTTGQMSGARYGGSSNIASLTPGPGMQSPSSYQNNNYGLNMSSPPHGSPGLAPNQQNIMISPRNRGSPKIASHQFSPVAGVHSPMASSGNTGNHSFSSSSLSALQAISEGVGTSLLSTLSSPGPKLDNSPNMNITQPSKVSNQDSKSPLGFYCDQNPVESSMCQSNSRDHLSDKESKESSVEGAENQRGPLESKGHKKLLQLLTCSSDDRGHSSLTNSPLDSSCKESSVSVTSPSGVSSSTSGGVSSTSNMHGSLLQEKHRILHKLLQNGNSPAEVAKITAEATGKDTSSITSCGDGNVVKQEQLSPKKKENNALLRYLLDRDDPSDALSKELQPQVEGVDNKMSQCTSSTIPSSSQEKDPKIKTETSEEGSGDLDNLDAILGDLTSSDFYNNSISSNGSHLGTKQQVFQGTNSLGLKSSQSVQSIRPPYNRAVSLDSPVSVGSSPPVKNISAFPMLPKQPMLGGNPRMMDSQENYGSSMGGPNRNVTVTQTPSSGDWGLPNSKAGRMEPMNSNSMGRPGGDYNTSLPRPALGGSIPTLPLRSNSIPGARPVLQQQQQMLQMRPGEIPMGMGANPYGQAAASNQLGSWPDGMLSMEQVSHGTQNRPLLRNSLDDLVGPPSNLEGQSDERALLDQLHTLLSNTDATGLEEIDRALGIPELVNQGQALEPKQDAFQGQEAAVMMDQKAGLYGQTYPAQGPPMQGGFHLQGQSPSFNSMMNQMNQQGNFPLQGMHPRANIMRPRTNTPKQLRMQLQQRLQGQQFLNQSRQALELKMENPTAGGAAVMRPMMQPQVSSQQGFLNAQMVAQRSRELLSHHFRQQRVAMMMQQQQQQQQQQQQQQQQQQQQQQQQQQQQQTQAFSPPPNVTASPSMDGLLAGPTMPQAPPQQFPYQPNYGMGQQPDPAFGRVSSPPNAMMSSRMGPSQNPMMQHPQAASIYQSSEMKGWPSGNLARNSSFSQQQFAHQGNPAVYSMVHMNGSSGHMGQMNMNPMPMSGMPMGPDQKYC

[5] = biological target: PR-B (progesterone receptor isoform B) (UniProt P06401 1-933)
Sequence of PR-B (progesterone receptor isoform B) (P06401 whole entry, canonical isoform): as the sequence (P06401 whole entry, chain 1 of 2, canonical isoform) above

[6] = biological target: PR-A (progesterone receptor isoform A) (UniProt P06401 165-933)

Measured: binding result

Sequence of PR-B (progesterone receptor isoform B);SRC3 (steroid receptor coactivator 3);p300 (P06401 whole entry, chain 1 of 3, canonical isoform): as the sequence (P06401 whole entry, chain 1 of 2, canonical isoform) above
Sequence of PR-B (progesterone receptor isoform B);SRC3 (steroid receptor coactivator 3);p300 (Q9Y6Q9 whole entry, chain 2 of 3, canonical isoform): as the sequence (Q9Y6Q9 whole entry, chain 2 of 2, canonical isoform) above
Sequence of PR-B (progesterone receptor isoform B);SRC3 (steroid receptor coactivator 3);p300 (Q09472 whole entry, chain 3 of 3, canonical isoform): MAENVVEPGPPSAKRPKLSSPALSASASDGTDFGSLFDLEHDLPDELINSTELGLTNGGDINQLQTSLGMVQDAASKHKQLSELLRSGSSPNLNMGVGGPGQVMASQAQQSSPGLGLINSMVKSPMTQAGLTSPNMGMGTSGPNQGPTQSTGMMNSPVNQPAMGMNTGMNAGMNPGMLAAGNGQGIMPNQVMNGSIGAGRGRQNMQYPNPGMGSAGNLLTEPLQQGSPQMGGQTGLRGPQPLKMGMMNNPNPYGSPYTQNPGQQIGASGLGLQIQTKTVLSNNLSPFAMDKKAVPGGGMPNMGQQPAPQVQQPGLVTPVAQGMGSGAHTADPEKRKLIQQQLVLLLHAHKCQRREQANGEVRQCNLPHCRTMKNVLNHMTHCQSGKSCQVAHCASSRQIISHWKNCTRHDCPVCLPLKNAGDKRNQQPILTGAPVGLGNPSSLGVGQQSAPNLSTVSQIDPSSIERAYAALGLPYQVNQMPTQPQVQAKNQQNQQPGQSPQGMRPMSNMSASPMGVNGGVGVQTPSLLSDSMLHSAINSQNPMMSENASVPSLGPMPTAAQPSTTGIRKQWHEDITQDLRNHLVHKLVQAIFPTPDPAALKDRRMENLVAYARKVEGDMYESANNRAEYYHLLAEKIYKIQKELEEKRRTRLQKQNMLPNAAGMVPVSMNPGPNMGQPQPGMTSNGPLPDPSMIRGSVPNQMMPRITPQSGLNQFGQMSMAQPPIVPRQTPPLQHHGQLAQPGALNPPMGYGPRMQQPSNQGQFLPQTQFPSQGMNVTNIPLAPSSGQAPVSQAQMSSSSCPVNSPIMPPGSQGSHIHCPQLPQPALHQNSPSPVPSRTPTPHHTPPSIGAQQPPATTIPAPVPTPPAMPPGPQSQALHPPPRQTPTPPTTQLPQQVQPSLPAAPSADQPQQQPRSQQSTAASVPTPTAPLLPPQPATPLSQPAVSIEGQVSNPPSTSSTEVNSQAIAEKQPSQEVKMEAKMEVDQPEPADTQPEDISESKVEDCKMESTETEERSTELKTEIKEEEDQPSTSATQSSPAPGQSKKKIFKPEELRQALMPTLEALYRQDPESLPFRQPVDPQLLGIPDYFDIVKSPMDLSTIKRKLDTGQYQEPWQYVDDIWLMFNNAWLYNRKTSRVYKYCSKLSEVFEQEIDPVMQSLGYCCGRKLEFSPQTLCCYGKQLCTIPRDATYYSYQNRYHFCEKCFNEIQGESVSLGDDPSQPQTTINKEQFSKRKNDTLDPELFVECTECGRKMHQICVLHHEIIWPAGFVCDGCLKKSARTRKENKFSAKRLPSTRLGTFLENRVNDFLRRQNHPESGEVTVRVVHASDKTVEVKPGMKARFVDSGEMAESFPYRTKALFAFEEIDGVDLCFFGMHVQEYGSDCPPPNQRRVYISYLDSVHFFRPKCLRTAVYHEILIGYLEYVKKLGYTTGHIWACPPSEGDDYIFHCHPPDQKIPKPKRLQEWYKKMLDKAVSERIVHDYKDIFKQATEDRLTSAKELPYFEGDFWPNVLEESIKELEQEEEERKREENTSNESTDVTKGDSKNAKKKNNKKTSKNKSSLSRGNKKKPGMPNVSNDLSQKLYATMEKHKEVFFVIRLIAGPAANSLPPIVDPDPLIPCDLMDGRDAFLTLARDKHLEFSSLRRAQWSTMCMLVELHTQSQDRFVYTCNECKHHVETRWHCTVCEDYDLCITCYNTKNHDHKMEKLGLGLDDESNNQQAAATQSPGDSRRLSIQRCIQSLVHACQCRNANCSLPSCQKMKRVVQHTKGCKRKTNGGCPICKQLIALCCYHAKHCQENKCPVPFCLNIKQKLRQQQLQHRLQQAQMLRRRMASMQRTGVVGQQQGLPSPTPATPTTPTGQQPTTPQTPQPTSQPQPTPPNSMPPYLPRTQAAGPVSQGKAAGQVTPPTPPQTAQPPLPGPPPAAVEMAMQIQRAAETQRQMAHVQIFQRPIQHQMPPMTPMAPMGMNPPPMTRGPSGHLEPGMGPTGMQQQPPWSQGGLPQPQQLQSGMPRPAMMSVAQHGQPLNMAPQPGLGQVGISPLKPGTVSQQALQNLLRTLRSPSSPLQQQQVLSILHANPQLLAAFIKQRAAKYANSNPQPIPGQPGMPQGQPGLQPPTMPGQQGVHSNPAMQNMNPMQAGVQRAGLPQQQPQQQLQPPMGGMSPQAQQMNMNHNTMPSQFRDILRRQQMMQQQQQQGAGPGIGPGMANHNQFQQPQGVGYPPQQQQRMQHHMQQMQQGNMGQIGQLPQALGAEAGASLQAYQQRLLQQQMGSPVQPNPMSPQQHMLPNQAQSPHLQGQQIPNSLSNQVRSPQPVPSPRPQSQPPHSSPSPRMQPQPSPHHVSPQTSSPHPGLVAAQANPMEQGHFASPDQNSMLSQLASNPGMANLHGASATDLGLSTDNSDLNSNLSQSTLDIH

B1: 32-mer PRE (progesterone response element) (dsDNA)
DNA 1: CATCTTTGAGAACAAACTGTTCTTAAAACGAG
DNA 2: CTCGTTTTAAGAACAGTTTGTTCTCAAAGATG
binds: [1] | [2] | [3] | [4] | [5] | [6]
